According to patent US20140087995A1 (published 2014):
Numbered stars: 1 amine (or outer) side, 2 acyl side, 3 side chain; on linkers, the order of the positions; unused ones are H or OH. Bridge positions count the residues as written; N and C are the ends. Side chains are listed from the residue outwards. Ends that are not written are not given here. * marks the point of attachment. C20 diacid = O=C(O)CCCCCCCCCCCCCCCCCCC(=O)*; γGlu = O=C(O)[C@H](CCC(=O)[*:2])N[*:1]; AEEA = NCCOCCOCC(=O)O

T1: rat calcitonin receptor (rat, UniProt P32214 25-516)
T1 construct: whole, on cells; Cell membranes of transiently transfected BHK tk'ts 13 cells (Assay VIII); also called rCTR; rCT
T1 sequence (looked up): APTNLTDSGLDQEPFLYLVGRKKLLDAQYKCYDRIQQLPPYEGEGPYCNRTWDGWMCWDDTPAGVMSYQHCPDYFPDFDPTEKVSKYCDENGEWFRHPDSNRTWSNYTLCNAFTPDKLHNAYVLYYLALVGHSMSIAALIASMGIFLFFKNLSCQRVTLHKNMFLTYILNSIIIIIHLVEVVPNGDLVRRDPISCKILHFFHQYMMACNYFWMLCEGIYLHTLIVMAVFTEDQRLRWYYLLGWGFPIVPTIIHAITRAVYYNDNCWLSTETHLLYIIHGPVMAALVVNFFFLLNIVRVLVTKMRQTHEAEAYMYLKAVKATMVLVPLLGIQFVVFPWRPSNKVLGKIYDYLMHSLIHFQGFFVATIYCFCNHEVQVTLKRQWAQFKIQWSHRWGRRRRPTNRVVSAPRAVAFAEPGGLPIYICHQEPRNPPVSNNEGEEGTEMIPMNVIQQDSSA

T2: human calcitonin receptor (human, UniProt P30988 25-474)
T2 construct: whole, on cells; Cell membranes of a stably transfected BHK cell line (Assay VII); also called hCTR; hCT
T2 sequence (looked up): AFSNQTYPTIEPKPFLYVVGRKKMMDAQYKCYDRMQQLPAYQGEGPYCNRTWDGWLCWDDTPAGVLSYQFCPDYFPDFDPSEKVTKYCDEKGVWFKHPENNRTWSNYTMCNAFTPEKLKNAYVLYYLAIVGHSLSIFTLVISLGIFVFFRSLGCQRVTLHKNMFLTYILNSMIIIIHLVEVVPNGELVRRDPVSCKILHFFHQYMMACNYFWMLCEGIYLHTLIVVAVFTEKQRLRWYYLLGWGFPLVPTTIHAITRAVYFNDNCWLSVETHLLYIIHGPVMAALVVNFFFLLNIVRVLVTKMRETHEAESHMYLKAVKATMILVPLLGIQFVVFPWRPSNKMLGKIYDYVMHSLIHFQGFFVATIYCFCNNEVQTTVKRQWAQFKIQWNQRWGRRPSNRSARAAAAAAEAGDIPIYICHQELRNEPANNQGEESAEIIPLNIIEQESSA

T3: rat amylin receptor (rat calcitonin receptor + rat RAMP 3) (rat, UniProt P32214 25-516; Q9JJ73 23-147)
T3 construct: whole, on cells; Cell membranes of transiently transfected BHK tk'ts 13 cells (Assay VI); also called rAmylin-R; rat amylin 3(a) receptor
T3 sequence (looked up) 1: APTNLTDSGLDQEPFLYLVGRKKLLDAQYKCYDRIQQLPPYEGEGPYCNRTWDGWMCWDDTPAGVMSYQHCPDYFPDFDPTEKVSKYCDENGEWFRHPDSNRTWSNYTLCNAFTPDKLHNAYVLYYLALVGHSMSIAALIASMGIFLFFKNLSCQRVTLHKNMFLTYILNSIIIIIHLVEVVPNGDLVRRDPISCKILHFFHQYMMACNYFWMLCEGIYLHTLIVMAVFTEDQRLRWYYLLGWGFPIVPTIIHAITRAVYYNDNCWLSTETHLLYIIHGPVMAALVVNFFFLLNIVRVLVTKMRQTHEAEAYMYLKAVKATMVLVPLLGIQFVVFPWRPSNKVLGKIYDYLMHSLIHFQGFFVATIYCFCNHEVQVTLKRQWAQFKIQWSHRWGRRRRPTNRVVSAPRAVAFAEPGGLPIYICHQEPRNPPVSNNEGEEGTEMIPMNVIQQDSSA
T3 sequence (looked up) 2: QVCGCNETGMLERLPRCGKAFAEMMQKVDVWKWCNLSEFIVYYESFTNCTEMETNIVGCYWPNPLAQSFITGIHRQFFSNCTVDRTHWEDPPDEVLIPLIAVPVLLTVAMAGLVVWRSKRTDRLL


Key:
rat calcitonin receptor [1] = target: T1, rat calcitonin receptor; experiment: ratio IC50 rat calcitonin receptor / IC50 rat amylin receptor
[2] = target: T2, human calcitonin receptor; experiment: ratio IC50 human calcitonin receptor / IC50 human amylin receptor
Outline: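 Competition binding by SPA with cell membranes (35 ng/μL) and SPA beads in 50 mM Hepes pH 7.4 with 1 mM CaCl2, 5 mM MgCl2, 0.1% OA and 0.02% Tween20. Incubated 120 min at 25 °C with shaking, then counted.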

rat calcitonin receptor [3] = target: T1, rat calcitonin receptor; experiment: SPA competition vs 125I-calcitonin, membranes with rat CTR (Assay VIII)
[4] = target: T3, rat amylin receptor (rat calcitonin …); experiment: SPA competition vs 125I-rat amylin, membranes with rat CTR + rat RAMP3 (Assay VI)

Row | Ratio rCT/rAmylin binding (rat calcitonin receptor [1]) | Ratio hCT/hAmylin binding [2] | IC50 (rat calcitonin receptor [3]) [nM] | IC50 [4] [nM] | Binder
1 | 69.1 | 34.7 | 7.6 | 0.11 | K([AEEA-C20 diacid])CNTATCATQRLANFLRHSSPNFGAIPSSTNVGSNTY-NH2 (disulfide 2-7; N-terminus assumed; SMILES CC[C@H](C)[C@H](NC(=O)[C@H](C)NC(=O)CNC(=O)[C@H](Cc1ccccc1)NC(=O)[C@H](CC(N)=O)NC(=O)[C@@H]1CCCN1C(=O)[C@H](CO)NC(=O)[C@H](CO)NC(=O)[C@H](Cc1c[nH]cn1)NC(=O)[C@H](CCCNC(=N)N)NC(=O)[C@H](CC(C)C)NC(=O)[C@H](Cc1ccccc1)NC(=O)[C@H](CC(N)=O)NC(=O)[C@H](C)NC(=O)[C@H](CC(C)C)NC(=O)[C@H](CCCNC(=N)N)NC(=O)[C@H](CCC(N)=O)NC(=O)[C@@H](NC(=O)[C@H](C)NC(=O)[C@@H]1CSSC[C@H](NC(=O)[C@@H](N)CCCCNC(=O)COCCOCCNC(=O)CCCCCCCCCCCCCCCCCCC(=O)O)C(=O)N[C@@H](CC(N)=O)C(=O)N[C@@H]([C@@H](C)O)C(=O)N[C@@H](C)C(=O)N[C@@H]([C@@H](C)O)C(=O)N1)[C@@H](C)O)C(=O)N1CCC[C@H]1C(=O)N[C@@H](CO)C(=O)N[C@@H](CO)C(=O)N[C@H](C(=O)N[C@@H](CC(N)=O)C(=O)N[C@H](C(=O)NCC(=O)N[C@@H](CO)C(=O)N[C@@H](CC(N)=O)C(=O)N[C@H](C(=O)N[C@@H](Cc1ccc(O)cc1)C(N)=O)[C@@H](C)O)C(C)C)[C@@H](C)O, Acylated analogue of human amylin; also called compound 43) [N^ε1-[2-[2-[2-(19-carboxynonadecanoylamino)ethoxy]ethoxy]acetyl]-[Arg17,Pro21,Pro27]-h-amylin]
2 | 84.3 | 44.9 | 17.1 | 0.203 | {C20 diacid-γGlu}-GRCNTATCATQRLANFLRHSSPNFGAIPSSTNVGSHTY-NH2 (disulfide 3-8; SMILES CC[C@H](C)[C@H](NC(=O)[C@H](C)NC(=O)CNC(=O)[C@H](Cc1ccccc1)NC(=O)[C@H](CC(N)=O)NC(=O)[C@@H]1CCCN1C(=O)[C@H](CO)NC(=O)[C@H](CO)NC(=O)[C@H](Cc1c[nH]cn1)NC(=O)[C@H](CCCNC(=N)N)NC(=O)[C@H](CC(C)C)NC(=O)[C@H](Cc1ccccc1)NC(=O)[C@H](CC(N)=O)NC(=O)[C@H](C)NC(=O)[C@H](CC(C)C)NC(=O)[C@H](CCCNC(=N)N)NC(=O)[C@H](CCC(N)=O)NC(=O)[C@@H](NC(=O)[C@H](C)NC(=O)[C@@H]1CSSC[C@H](NC(=O)[C@H](CCCNC(=N)N)NC(=O)CNC(=O)CC[C@H](NC(=O)CCCCCCCCCCCCCCCCCCC(=O)O)C(=O)O)C(=O)N[C@@H](CC(N)=O)C(=O)N[C@@H]([C@@H](C)O)C(=O)N[C@@H](C)C(=O)N[C@@H]([C@@H](C)O)C(=O)N1)[C@@H](C)O)C(=O)N1CCC[C@H]1C(=O)N[C@@H](CO)C(=O)N[C@@H](CO)C(=O)N[C@H](C(=O)N[C@@H](CC(N)=O)C(=O)N[C@H](C(=O)NCC(=O)N[C@@H](CO)C(=O)N[C@@H](Cc1c[nH]cn1)C(=O)N[C@H](C(=O)N[C@@H](Cc1ccc(O)cc1)C(N)=O)[C@@H](C)O)C(C)C)[C@@H](C)O, Acylated analogue of human amylin, extended by one residue at the N-terminus; also called compound 47)
3 | 67.1 | 26.8 | 41.8 | 0.623 | K([AEEA-γGlu-C20 diacid])RCNTATCATQRLANFLRHSSPNFGAIPSSTNVGSHTY-NH2 (disulfide 3-8; N-terminus assumed; SMILES CC[C@H](C)[C@H](NC(=O)[C@H](C)NC(=O)CNC(=O)[C@H](Cc1ccccc1)NC(=O)[C@H](CC(N)=O)NC(=O)[C@@H]1CCCN1C(=O)[C@H](CO)NC(=O)[C@H](CO)NC(=O)[C@H](Cc1c[nH]cn1)NC(=O)[C@H](CCCNC(=N)N)NC(=O)[C@H](CC(C)C)NC(=O)[C@H](Cc1ccccc1)NC(=O)[C@H](CC(N)=O)NC(=O)[C@H](C)NC(=O)[C@H](CC(C)C)NC(=O)[C@H](CCCNC(=N)N)NC(=O)[C@H](CCC(N)=O)NC(=O)[C@@H](NC(=O)[C@H](C)NC(=O)[C@@H]1CSSC[C@H](NC(=O)[C@H](CCCNC(=N)N)NC(=O)[C@@H](N)CCCCNC(=O)COCCOCCNC(=O)CC[C@H](NC(=O)CCCCCCCCCCCCCCCCCCC(=O)O)C(=O)O)C(=O)N[C@@H](CC(N)=O)C(=O)N[C@@H]([C@@H](C)O)C(=O)N[C@@H](C)C(=O)N[C@@H]([C@@H](C)O)C(=O)N1)[C@@H](C)O)C(=O)N1CCC[C@H]1C(=O)N[C@@H](CO)C(=O)N[C@@H](CO)C(=O)N[C@H](C(=O)N[C@@H](CC(N)=O)C(=O)N[C@H](C(=O)NCC(=O)N[C@@H](CO)C(=O)N[C@@H](Cc1c[nH]cn1)C(=O)N[C@H](C(=O)N[C@@H](Cc1ccc(O)cc1)C(N)=O)[C@@H](C)O)C(C)C)[C@@H](C)O, Acylated analogue of human amylin, extended by one residue at the N-terminus; also called compound 45)
4 | 142 | 48.9 | 46.8 | 0.33 | {C20 diacid-γGlu}-GRCNTATCATQRLANFLRHSSPNFGAIPSSTNVGSNTY-NH2 (disulfide 3-8; SMILES CC[C@H](C)[C@H](NC(=O)[C@H](C)NC(=O)CNC(=O)[C@H](Cc1ccccc1)NC(=O)[C@H](CC(N)=O)NC(=O)[C@@H]1CCCN1C(=O)[C@H](CO)NC(=O)[C@H](CO)NC(=O)[C@H](Cc1c[nH]cn1)NC(=O)[C@H](CCCNC(=N)N)NC(=O)[C@H](CC(C)C)NC(=O)[C@H](Cc1ccccc1)NC(=O)[C@H](CC(N)=O)NC(=O)[C@H](C)NC(=O)[C@H](CC(C)C)NC(=O)[C@H](CCCNC(=N)N)NC(=O)[C@H](CCC(N)=O)NC(=O)[C@@H](NC(=O)[C@H](C)NC(=O)[C@@H]1CSSC[C@H](NC(=O)[C@H](CCCNC(=N)N)NC(=O)CNC(=O)CC[C@H](NC(=O)CCCCCCCCCCCCCCCCCCC(=O)O)C(=O)O)C(=O)N[C@@H](CC(N)=O)C(=O)N[C@@H]([C@@H](C)O)C(=O)N[C@@H](C)C(=O)N[C@@H]([C@@H](C)O)C(=O)N1)[C@@H](C)O)C(=O)N1CCC[C@H]1C(=O)N[C@@H](CO)C(=O)N[C@@H](CO)C(=O)N[C@H](C(=O)N[C@@H](CC(N)=O)C(=O)N[C@H](C(=O)NCC(=O)N[C@@H](CO)C(=O)N[C@@H](CC(N)=O)C(=O)N[C@H](C(=O)N[C@@H](Cc1ccc(O)cc1)C(N)=O)[C@@H](C)O)C(C)C)[C@@H](C)O, Acylated analogue of human amylin, extended by one residue at the N-terminus; also called compound 46) [N^-1-[(4S)-4-carboxy-4-(19-carboxynonadecanoylamino)butanoyl]-Gly[Arg1,Arg17,Pro21,Pro27]-h-amylin]
5 | 201 | 69.7 | 112 | 0.558 | K([γGlu-C20 diacid])CNTATCATQRLANFLRHSSPNFGAIPSSTNVGSNTY-NH2 (disulfide 2-7; N-terminus assumed; SMILES CC[C@H](C)[C@H](NC(=O)[C@H](C)NC(=O)CNC(=O)[C@H](Cc1ccccc1)NC(=O)[C@H](CC(N)=O)NC(=O)[C@@H]1CCCN1C(=O)[C@H](CO)NC(=O)[C@H](CO)NC(=O)[C@H](Cc1c[nH]cn1)NC(=O)[C@H](CCCNC(=N)N)NC(=O)[C@H](CC(C)C)NC(=O)[C@H](Cc1ccccc1)NC(=O)[C@H](CC(N)=O)NC(=O)[C@H](C)NC(=O)[C@H](CC(C)C)NC(=O)[C@H](CCCNC(=N)N)NC(=O)[C@H](CCC(N)=O)NC(=O)[C@@H](NC(=O)[C@H](C)NC(=O)[C@@H]1CSSC[C@H](NC(=O)[C@@H](N)CCCCNC(=O)CC[C@H](NC(=O)CCCCCCCCCCCCCCCCCCC(=O)O)C(=O)O)C(=O)N[C@@H](CC(N)=O)C(=O)N[C@@H]([C@@H](C)O)C(=O)N[C@@H](C)C(=O)N[C@@H]([C@@H](C)O)C(=O)N1)[C@@H](C)O)C(=O)N1CCC[C@H]1C(=O)N[C@@H](CO)C(=O)N[C@@H](CO)C(=O)N[C@H](C(=O)N[C@@H](CC(N)=O)C(=O)N[C@H](C(=O)NCC(=O)N[C@@H](CO)C(=O)N[C@@H](CC(N)=O)C(=O)N[C@H](C(=O)N[C@@H](Cc1ccc(O)cc1)C(N)=O)[C@@H](C)O)C(C)C)[C@@H](C)O, Acylated analogue of human amylin; also called compound 48) [N^ε1-[(4S)-4-carboxy-4-(19-carboxynonadecanoylamino)butanoyl]-[Arg17,Pro21,Pro27]-h-amylin]
